Test system: HepG2 B6 cells (STAT-sPAP reporter)
Assay: OSM-GST mutant driven sPAP production in HepG2 B6 assay
Format: cell-based, human
Settings: for 'Potency': relative to wild type, from Mean %
Protocol: HepG2 B6 cells were plated into 96 well plates to a final concentration of 3×10^4 cells per well in 100 μl of media (DMEM (Sigma), 10% HI FCS, 1% non-essential amino acids, 2 mM Glutamine, 500 μg ml^−1 G418, (all from Life Technologies)). Cells were allowed to equilibrate for 48 hours. Putative anti-OSM solid compounds were made up to a stock dilution of 20 mM in DMSO and serially diluted 1:3 in DMSO. This was then further diluted in HepG26B assay media, this is as above media but with 1% heat inactivated FCS, low alkaline phosphatase activity (Life Technologies) substituted for 10% HI FCS. Compounds were diluted 1:3 from a top concentration of […] to a final concentration of 0.09 μM in a final concentration of 1% DMSO. (That is 200, 66.67, 22.22, 7.41, 2.47, 0.82, 0.27, 0.09 and 0 μM). The old media was removed from the wells and replaced with diluted compound also containing 2 ng ml^−1 OSM (R&D Systems), cells were incubated for a further 20 hours. Each dilution was performed in triplicate. 20 μl of media was removed from each well and assayed for sPAP activity using pNPP (p-Nitrophenyl phosphate; Sigma), as a substrate. Endogenous alkaline phosphatase is blocked with L-homoarginine. Optical density of substrate is read at 405-650 nm. Concentration of compound is plotted against OD as a measure of sPAP produced and can be analysed to determine IC50 values.
The assay described in Example 7b above was employed. OSM-GST mutants were diluted to a concentration of 100 ng ml^−using the known concentration of intact OSM mutants generated in Example 9b. A wild type OSM-GST was included for control purposes. Dilutions were made in HepG2 B6 media with 1% heat inactivated FCS, low alkaline phosphatase activity. Serial 1:3 dilutions were then made. (100; 33.33; 11.11; 3.7; 1.23; 0.4 ng ml^−1). 3×10^4 HepG2 B6 were dispensed into individual well of a 96 well plate in 100 μl of media. Cells were allowed to equilibrate for 48 hours. Media was then removed and replaced with 100 μl of diluted OSM-GST mutant. Cells were incubated for a further 20 hours. Each dilution was performed in triplicate. 20 μl of media was removed and assayed for sPAP using pNPP as a substrate. Endogenous ALP was blocked with L-homoarginine. O.D. was read at 405-650 nm. The experiment was repeated twice.

| Molecule | Expt 1 EC50 | Expt 2 EC50 | 'Potency' |
| --- | --- | --- | --- |
| (1) S7A: OSM-GST fusion, alanine for Ser 7 (protein, left off: a dimerising Fc or GST; large carriers; small tags and cut ends) AAIGSCAKEYRVLLGQLQKQTDLMQDTSRLLDPYIRIQGLDVPKLREHCRERPGAFPSEETLRGLGRRGFLQTLNATLGCVLHRLADLEQRLPKAQDLERSGLNIEDLEKLQMARPNILGLRNNIYCMAQLLDNSDTAEPTKAGRGASQPPTPTPASDAFQRKLEGCRFLHGYHRFMHSVGRVFSKWGESPNRSRR | 0.012 µg/mL | 0.0222 µg/mL | MORE (<80% More potent) |
| (2) K8A: OSM-GST fusion, alanine for Lys 8 (protein, left off: a dimerising Fc or GST; large carriers; small tags and cut ends) AAIGSCSAEYRVLLGQLQKQTDLMQDTSRLLDPYIRIQGLDVPKLREHCRERPGAFPSEETLRGLGRRGFLQTLNATLGCVLHRLADLEQRLPKAQDLERSGLNIEDLEKLQMARPNILGLRNNIYCMAQLLDNSDTAEPTKAGRGASQPPTPTPASDAFQRKLEGCRFLHGYHRFMHSVGRVFSKWGESPNRSRR | 0.016 µg/mL | 0.0125 µg/mL | MORE (<80% More potent) |
| (3) E9A: OSM-GST fusion, alanine for Glu 9 (protein, left off: a dimerising Fc or GST; large carriers; small tags and cut ends) AAIGSCSKAYRVLLGQLQKQTDLMQDTSRLLDPYIRIQGLDVPKLREHCRERPGAFPSEETLRGLGRRGFLQTLNATLGCVLHRLADLEQRLPKAQDLERSGLNIEDLEKLQMARPNILGLRNNIYCMAQLLDNSDTAEPTKAGRGASQPPTPTPASDAFQRKLEGCRFLHGYHRFMHSVGRVFSKWGESPNRSRR | 0.0236 µg/mL | 0.0089 µg/mL | MORE (<80% More potent) |

Source: patent publication US7291332B2, “Inflammatory mediator antagonists” (SmithKline Beecham Corporation, priority 1998, dated 2007)
